Blank lines part the entries; values can stand above or below the molecule they belong to.
Assays:
[1] = biological target: T1, recombinant Huntingtin fragment with free aspartic acid 586 at the C-terminus (HTT586) (Homo sapiens, UniProt P42858); experiment: Protein ELISA with recombinant Huntingtin HTT586 versus HTT610; type: binding; details: protein capture ELISA, normalized to mAB 2166
T1 construct: recombinant Huntingtin fragment with free aspartic acid 586 at the C-terminus
Protocol: (§1) Binding of antibodies to N-terminal fragment HTT610 was determined by a standard protein capture ELISA procedure using Maxisorb™ ELISA plates (Thermo; CatNr. 439454), coated with 50 μl of a 1:5000 rabbit anti V5 mAB (Sigma, CatNr. V8137), blocking with blocking buffer (PBS, 1% BSA, 0.1% Tween 20), capturing of recombinant Huntingtin from HEK cell extracts (100 ng/μl total protein) followed by incubation with several dilutions of mouse anti HTT sera (1:100; 1:300 and 1:900) or with mAB2166 as reference (diluted 1:2000; Millipore, Cat Nr. MAB2166) for 1 hour at RT. ELISA incubations, washing and detection procedures were performed according to standard procedures.
FIG. 12: mAB M1D1 specifically recognizes recombinant Huntingtin fragment with free aspartic acid 586 at the C-terminus stronger than uncleaned recHTT610. Protein ELISA (performed as in Example 1) using recombinant Huntingtin with 610 and 586 amino acids length (HTT610 and HTT586, respectively). Values indicate the ratio of the mAB M1D1 signal (OD; protein capture ELISA as explained in Example 1) to the mAB 2166 control antibody signal. Values were normalized to reference mAB 2166 recognizing an internal epitope present in both fragments as protein loading control.

[2] = tested on: Huntingtin-derived peptides (p6773, p7564, p6776 and caspase region 586 peptides); experiment: Peptide ELISA of hybridoma supernatants and monoclonal antibodies; type: binding, human
Protocol: Vaccine-induced immune responses in mice were determined by ELISA using heparin as anticoagulant. ELISA plates (Nunc Maxisorb) were coated with maleimide activated BSA as carrier to which Cystein containing peptides were coupled via stable thioether bonds. For titrations, plasma dilutions were added and peptide-specific antibodies were quantified by biotinylated anti-mouse IgG (Southern Biotech, CatNr. 1034-08) as detection antibody combined with Streptavidin-POD (Roche, CatNr. 1089153) and subsequent color reaction using ABTS. EC50 values were determined using curve fitting with a 4-parameter logistic using GraphPad Prism (GraphPad Software).
For the production and isolation of monoclonal antibodies, the ClonaCell-HY Hybridoma Cloning Kit (STEMCELL technologies, CatNr. 28411) was used according to the instructions of the manufacturer. In brief, hybridoma fusions were performed with myeloma cell line SP2-0 under HAT selection and supernatants were initially screened by peptide ELISA using the immunization peptide, respectively, and an irrelevant control peptide for background determination. […] Selected colonies were picked and analyzed by DNA sequencing on an ABI3130xl Genetic Analyzer.

[3] = tested on: bone marrow derived primary mouse macrophages; experiment: In vitro phagocytosis assay; type: cell-based; details: 5 ng/μl antibodies; p9305 beads for PRR13, p9304 beads for C6-17; versus isotype control mouse IgG2a
Protocol: Isolation and in vitro differentiation of macrophages was essentially performed as described e.g. in Zhang et al. 2008 [PMID: 19016445]. In brief, tibia- and femur-derived bone marrow cells from 8 to 12 weeks old BALB/c mice were divided onto 2-3 10 cm-cell culture dishes at a density of 20-30×10^6 cells per dish, differentiated 4 days in RPMI/10% FCS+P/S in the presence of 20 ng/ml M-CSF (RD-Systems, Cat-No: 416-ML-010), redistributed at day 5 into 24-well tissue culture plates at a density of 150.000 cells/well until day 9. 24 hrs before phagocytosis, cells were starved in 500 μl RPMI-media+10% FCS+P/S in absence of M-CSF. […] Antibody-coated fluorescent peptide-beads were subsequently added to differentiated macrophages for 1 hr at 37° C. (in a volume of 200 ul containing 0.5 ug beads/well) allowing for in vitro uptake by phagocytosis. After washing and scraping the cells in ice cold PBS, cells were washed in FACS-Buffer (1×PBS+1% BSA) and analysed for fluorescence signal by standard FACS procedure.

[4] = biological target: T2, recombinant 610 amino acids N-terminal Huntingtin fragment (recHTT610) (Homo sapiens, UniProt P42858, DUP37-38); experiment: Protein capture ELISA against recHTT610; type: binding; details: recHTT610 capture ELISA of preselected mAB candidates
T2 construct: the N-terminal 610 aminoacids of human Huntingtin protein extended by two C-terminal V5 tags; made in house; host or cells: HEK293 freestyle cells, transient transfection with precHTT610; NP-40 lysate captured on an anti-V5 coated plate
T2 sequence (P42858 with tags, fused parts or gaps DUP37-38): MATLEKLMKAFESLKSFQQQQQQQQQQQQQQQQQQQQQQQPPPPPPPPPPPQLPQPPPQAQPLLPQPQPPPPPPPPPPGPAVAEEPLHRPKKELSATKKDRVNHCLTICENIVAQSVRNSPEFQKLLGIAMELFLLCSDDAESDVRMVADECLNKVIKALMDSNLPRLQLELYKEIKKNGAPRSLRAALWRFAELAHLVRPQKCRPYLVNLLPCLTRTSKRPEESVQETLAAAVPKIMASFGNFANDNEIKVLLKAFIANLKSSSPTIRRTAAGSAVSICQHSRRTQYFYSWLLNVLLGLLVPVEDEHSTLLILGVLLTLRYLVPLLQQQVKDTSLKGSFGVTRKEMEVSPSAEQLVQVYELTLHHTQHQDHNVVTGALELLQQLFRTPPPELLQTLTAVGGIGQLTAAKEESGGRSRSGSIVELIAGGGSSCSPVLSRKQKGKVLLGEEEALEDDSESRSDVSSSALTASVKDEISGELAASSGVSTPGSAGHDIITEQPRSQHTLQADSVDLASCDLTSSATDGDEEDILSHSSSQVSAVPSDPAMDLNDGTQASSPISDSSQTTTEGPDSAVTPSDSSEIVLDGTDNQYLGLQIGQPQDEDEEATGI
Protocol: A DNA covering the coding region of the N-terminal 610 aminoacids of human Huntingtin protein extended by two C-terminal V5 tags were synthesized and cloned via XbaI and BamHI restriction sites into eukaryotic expression vector pCDH-EF1-MCS IRES Puro (SBI; CatNr. CD532A1) yielding plasmid precHTT610. Cloning procedures were performed according to standard molecular biology procedures essentially as indicated by manufacturers including restriction digestions and ligation reactions (NEB Quick ligase kit; CatNr. M2200L), bacterial transformation followed by clone selection and analysis. […] Protein concentrations were determined using Qubit (Invitrogen; CatNr.Q32866) according to the manufacturer's instructions.
as §1, with “ELISA incubations, washing and detection procedures were performed according to standard procedures.” left out

[5] = tested on: caspase 6 cleavage of target peptide spanning caspase region 586 of Huntingtin; experiment: In vitro caspase 6 cleavage inhibition assay; type: biochemical, human; details: affinity purified polyclonal antibodies 3 ng/μl, mAB C6-17 10 ng/μl; no protection = 100%
Protocol: Caspase 6 inhibition assays were performed using Maxisorb ELISA plates (Thermo; 439454) whereby 50 μl of 20 nM BSA-coupled peptide (as indicated in FIG. 18) was coated for 1 hour at RT followed by a one hour treatment with 150 μl blocking buffer (PBS, 1% BSA, 0.1% Tween 20), incubation for 1 hour at RT with affinity purified polyclonal sera (3 ng/μl) or affinity purified mABs (10 ng/μl) as indicated, respectively. After several washes with washing buffer (PBS, 0.1% BSA, 0.1% Tween 20), 5 U Caspase 6 enzyme (Enzo; BML SE170-5000) diluted in 1× Caspase 6 Buffer (BioVision; 1068-80) was added to each well and incubated for 30 min at 37° C. Quantification of the newly exposed epitope generated by caspase 6 peptide cleavage that reflected the extent of caspase accessibility was performed by ELISA as described in Example 1 using peptide p7564-induced antibodies for detection of the free C-terminal aspartic acid-containing epitope.

T1 sequence (P42858 1-584): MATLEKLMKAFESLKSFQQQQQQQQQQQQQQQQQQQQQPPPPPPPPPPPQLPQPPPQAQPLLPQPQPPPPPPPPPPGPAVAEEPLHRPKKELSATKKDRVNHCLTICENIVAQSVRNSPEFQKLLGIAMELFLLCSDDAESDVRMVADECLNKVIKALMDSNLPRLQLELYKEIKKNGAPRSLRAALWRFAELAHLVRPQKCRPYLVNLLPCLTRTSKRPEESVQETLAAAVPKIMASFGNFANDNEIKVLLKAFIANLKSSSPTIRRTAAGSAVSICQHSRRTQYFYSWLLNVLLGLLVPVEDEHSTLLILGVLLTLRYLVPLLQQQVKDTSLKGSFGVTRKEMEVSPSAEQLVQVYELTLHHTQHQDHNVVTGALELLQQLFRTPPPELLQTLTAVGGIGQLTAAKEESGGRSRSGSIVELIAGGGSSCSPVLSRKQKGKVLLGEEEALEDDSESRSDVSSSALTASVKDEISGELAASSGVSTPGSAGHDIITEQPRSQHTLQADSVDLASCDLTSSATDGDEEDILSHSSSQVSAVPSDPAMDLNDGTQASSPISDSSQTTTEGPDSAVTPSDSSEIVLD

recognition of HTT586 versus recHTT610 (ratio of mAB signal to mAB 2166 control signal) [1]: stronger
p7564 to p6776 OD signal ratio ([2]; specificity against cleaved peptide p7564, preselected mABs): most favorable
B1: M1D1: monoclonal antibody, mouse IgM, generated using peptide p7564 as immunogen; VH/VL SEQ ID No. 64/65 (antibody)
VH: MDFGLSWVFFVVFYQGVHCEVQLVESGGGLVQPKGSLKLSCAASGFTFNTYAMNWVRQAPGKGLEWVARIRSKSNNYATYYADSVKDRFTISRDDSQSMLYLQMNNLKTEDTAMYYCVRHGEYGNPWFAYWGQGTLVTVSAESQSFPNVFPL
light: MKLPVRLLVLMFWIPASSSDVVMTQTPLSLPVSLGDQASISCRSSQSLVHSNGNTYLHWYLQKPGQSPKLLIYKVSNRFSGVPDRFSGSGSGTDFTLKISRVEAEDLGVYFCSQSTHVPYTFGGGTKLEIKRADAAPTVSIFPPSSEQLTSGGASVVCFLNNFYPK
modifications: antibody sequence
recognition of caspase region 586 peptides (OD) ([2]; mAB concentration 1 ng/μl, peptides p7564, p7562, p7552, p7541, p7567, p7568, p7605, p6777): recognizes Huntingtin peptides from the caspase 6 cleavage region of at least 7AA length containing free C-terminal Aspartic Acid

B2: PRR13: monoclonal antibody, mouse IgG2a, generated by hybridoma technique using peptide p6773 as immunogen; VH/VL SEQ ID No. 62/63 (antibody)
VH: MGWSWVMLFLLSGTGGVLSEVQLQQSAPELVKPGASVKMSCKASGYSFTDFYMKWVKQSHGKGLEWIGDIDPKNGDTFYNQKFKGRATLTVDKSSSTAYMQLNSLTTEDSAVYYCATYYGYTMDYWGQGTSVTVSSAKTTAPSVYPLAPVCGDTTGSSVTLGCLVKGYF
light: MDFQVQIFSFLLISASVIMSRGQIVLTQSPAIMSASLGERVTMTCTASSSVTSSYLHWYQQKPGSSPKLWIYSTSNLASGVPARFSGSGSGTSYSLTISSMEAEDAATYYCHQYRRPPRTFGGGTKLEIKRADAAPTVSIFPPSSEQLTSGGASVVCFLNNFYPR
modifications: antibody sequence
phagocytosis of peptide-coated beads (FACS) [3]: increased phagocytosis of beads

signal to noise ratio (recHTT610-specific signal : HEK ctrl extracts) [4]: best signal to noise ratio
% cleavage of target peptide [5]: reduce cleavage
B3: C6-17: monoclonal antibody, mouse IgG2a, generated by hybridoma technique using peptide p7543 as immunogen; VH/VL SEQ ID No. 60/61 (antibody)
VH: MGWSCIMLFLLSGTAGVLSEVQLQQSGPELVKPGASVKISCKTSGYTFTEYTMHWVKQSHGKSLEWIGGINPNNGGTRYNQKFKGKATLTVDRSSSTAYMELRSLTSEDSAVYYCASLDGRDYWGQGTTLTVSSAKTTAPSVFPLA
light: MVLMLLLLWVSGTCGDIVMSQSPSSLAVSAGEKVTMSCKSSQSLLNSRTRKNYLAWYQQKPGQSPKLLIYWASTRESGVPDRFTGSGSGTDFTLTISSVQAEDLAVYSCKQSYNLLTFGAGTKLELKRADAAPTVSIFPPSSEQLTSGGASVVCFLNNFYPK
modifications: antibody sequence
phagocytosis of peptide-coated beads (FACS) [3]: increased phagocytosis of beads
